These results are taken from patent US20020155503.

On to “recombinant form of the human Syk enzyme”, for which the “phosphorylation of library peptide, anti-phosphotyrosine ELISA (absorbance at 450 nm); preferred substrate of the sub-set” value is “Library Sub-Set 5 Tyr-Ser-Ile-Ile-Nle [SEQ ID No. 15]” in the data set with Tyr-Ser-Ile-Ile-Nle; “Library Sub-Set 1 Asp-Glu-Glu-Asp-Tyr [SEQ ID No. 11]” in the data set with Asp-Glu-Glu-Asp-Tyr; “Library Sub-Set 3Asp-Glu-Tyr-Glu-Asp [SEQ ID No. 13]” with Asp-Glu-Tyr-Glu-Asp; “Library Sub-Set 2 Asp-Glu-Glu-Tyr-Asp [SEQ ID No. 12]” in the data set on Asp-Glu-Glu-Tyr-Asp; “Library Sub-Set 4 Asp-Tyr-Glu-Glu-Val [SEQ ID No. 14]” in the data set on Asp-Tyr-Glu-Glu-Val.
